These results are taken from patent publication US20050064507A1, “Determining kinase specificity” (priority 2003, published 2005).

T1 sequence (Q05655 whole entry): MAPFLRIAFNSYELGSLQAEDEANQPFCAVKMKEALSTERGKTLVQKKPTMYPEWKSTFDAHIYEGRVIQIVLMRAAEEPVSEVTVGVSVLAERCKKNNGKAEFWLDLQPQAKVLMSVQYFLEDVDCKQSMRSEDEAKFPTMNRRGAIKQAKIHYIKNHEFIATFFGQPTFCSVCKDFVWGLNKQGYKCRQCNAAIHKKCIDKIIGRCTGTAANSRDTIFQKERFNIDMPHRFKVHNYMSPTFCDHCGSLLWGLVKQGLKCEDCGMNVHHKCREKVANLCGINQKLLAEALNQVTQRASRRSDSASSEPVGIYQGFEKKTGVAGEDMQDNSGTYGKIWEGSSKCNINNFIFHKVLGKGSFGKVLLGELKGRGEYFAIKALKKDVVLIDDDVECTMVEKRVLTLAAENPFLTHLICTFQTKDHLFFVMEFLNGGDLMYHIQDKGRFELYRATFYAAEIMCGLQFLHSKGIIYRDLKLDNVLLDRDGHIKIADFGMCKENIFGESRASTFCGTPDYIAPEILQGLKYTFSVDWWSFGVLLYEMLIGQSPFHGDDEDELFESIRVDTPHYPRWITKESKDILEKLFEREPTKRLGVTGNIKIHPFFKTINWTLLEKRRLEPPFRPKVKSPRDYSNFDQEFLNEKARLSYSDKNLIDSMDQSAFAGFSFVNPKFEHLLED

The first experiment concerns the target T1, PKC-delta (Homo sapiens, UniProt Q05655).
T1 construct: purchased Calbiochem
Nature of the experiment: In vitro kinase assay: peptide phosphorylation by PKC-delta. To be noted: peptide concentration 1 uM. The format is biochemical. The procedure, abridged:
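Biotin-Lys-dansyl-Lys-Pro-Pro-Gly-linked proteomic peptides (12–21-residue core) phosphorylated by PKC-delta in HEPES/Triton/CaCl2/MgCl2 buffer with phosphatidyl serine and PMA, 100 μM [γ-32P]ATP, 30° C., ~10 min, stoichiometry ≤5%; streptavidin-plate capture. Signal normalized as % of best peptide substrate.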
For the substance “148 (RELEQLKAEYLERRASRRRA) [compound 148]”, the “phosphorylation by PKC-delta” value stood at 27.

Regarding 149 (RVVQSVKHTKRKSSTVMK) [compound 149], the “phosphorylation by PKC-delta” value worked out at 20.

For “150 (VDPFYEMLAARKKRISVKKK) [compound 150]”, the “phosphorylation by PKC-delta” value stood at 34.

In the case of “151 (PQNSLKASNRKKKRTSFKRK) [compound 151]”, the “phosphorylation by PKC-delta” value was 27.

With “152 (DLIEGRKGAQIVKRASLKRG) [compound 152]”, the “phosphorylation by PKC-delta” value stood at 35.

Take “153 (TYLLPDKSRQGKRKTSIKRD) [compound 153]”: the “phosphorylation by PKC-delta” value stood at 32.

The same experiment, now with this note: peptide concentration 10 uM.
For “148 (RELEQLKAEYLERRASRRRA) [compound 148]”, the “phosphorylation by PKC-delta” value came to 14.

With 149 (RVVQSVKHTKRKSSTVMK) [compound 149], the “phosphorylation by PKC-delta” value was found to be 17.

Turning to “150 (VDPFYEMLAARKKRISVKKK) [compound 150]”, the “phosphorylation by PKC-delta” value is given as 20.

Turning to “151 (PQNSLKASNRKKKRTSFKRK) [compound 151]”, the “phosphorylation by PKC-delta” value stood at 37.

As to “152 (DLIEGRKGAQIVKRASLKRG) [compound 152]”, the “phosphorylation by PKC-delta” value is recorded as 18.

Regarding “153 (TYLLPDKSRQGKRKTSIKRD) [compound 153]”, the “phosphorylation by PKC-delta” value was found to be 26.
